According to patent publication US20020164600A1 (Dana-Farber, published 2002):

B1: mouse PD-L2 (ligand)
chain: LFTVTAPKEVYTVDVGSSVSLECDFDRRECTELEGIRASLQKVENDTSLQSERATLLEEQLPLGKALFHIPSVQVRDSGQYRCLVICGAAWDYKYLTVKVKASYMRIDTRILEVPGTGEVQLTCQARGYPLAEVSWQNVSVPANTSHIRTPEGLYQVTSVLRLKPQPSRNFSCMFWNAHMKELTSAIIDPLSRMEPKVPRTWPLHVFIPACTIALIFLAIVIIQRKRI
notes: Expressed on transfected COS, CHO.I-A^d, CHO.I-A^d.B7-2 and 300.19 cells; also called murine PD-L2; mPD-L2
B2: IgG2a (control Ig) (other, mouse, UniProt P01863 98-330, looked up)
chain: EPRGPTIKPCPPCKCPAPNLLGGPSVFIFPPKIKDVLMISLSPIVTCVVVDVSEDDPDVQISWFVNNVEVHTAQTQTHREDYNSTLRVVSALPIQHQDWMSGKEFKCKVNNKDLPAPIERTISKPKGSVRAPQVYVLPPPEEEMTKKQVTLTCMVTDFMPEDIYVEWTNNGKTELNYKNTEPVLDSDGSYFMYSKLRVEKKNWVERNSYSCSVVHEGLHNHHTTKSFSRTPGK
notes: Control protein

Tests used:
IgG2a (control Ig) = target: B2; test: FACS on transfected COS cells
human PD-L2 = target: T1, human PD-L2 (human, UniProt Q9BQ51 20-273); test: FACS on transfected COS cells
T1 construct: Expressed on transfected COS and 300.19 cells (300-hPD-L2); also called hPD-L2
T1 sequence: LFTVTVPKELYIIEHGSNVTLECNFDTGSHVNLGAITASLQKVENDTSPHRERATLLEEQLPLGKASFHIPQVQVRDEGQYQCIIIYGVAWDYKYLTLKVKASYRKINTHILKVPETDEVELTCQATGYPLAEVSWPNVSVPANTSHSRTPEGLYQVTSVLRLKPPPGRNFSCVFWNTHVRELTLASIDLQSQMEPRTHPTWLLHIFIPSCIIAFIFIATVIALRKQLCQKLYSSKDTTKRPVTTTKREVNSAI

Binder: B1
- binding result (IgG2a (control Ig)): no binding

Binder: B2
- binding result (human PD-L2): no binding
